Experimental data reported in patent US20180051072A1 (RPEPTIDE, published 2018).
Blank lines part the entries; values can stand above or below the binder they belong to.

Tests used:
Aβ(1-40) [1] = biological target: T1, Aβ(1-40) (human); assay: ELISA, peptide coated on plate
T1 construct: Peptide as coated on ELISA plates; its state of aggregation is not specified; also called Aβ-1-40 peptide; Beta-Amyloid 1-40

Aβ(1-42) = biological target: T2, Aβ(1-42) (human); assay: ELISA, varying peptide amounts, 7E7 at 1:1,000 (FIG. 11)
T2 construct: its state of aggregation is not specified; also called Beta-Amyloid 1-42; Aβ42

[2] = biological target: T3, Beta-Amyloid 1-42 monomer (human); assay: western blot, 7E7 as primary antibody (FIG. 20)
T3 construct: also called Beta-Amyloid Monomer; Aβ monomer (1-42)
Method: (§1) Western blots were performed to determine the extent of 7E7 binding to human Beta-Amyloid, specifically to determine if the antibody binds to Aβ aggregates, Aβ monomer, or both. This procedure applies to any Aβ peptide or peptide fragment which is composed of up to and including 40 or 42 amino acids. Before beginning the assay the vials of Aβ to be used were treated with 1,1,1,3,3,3-Hexafluoro-2-propanol (Aldrich Chemistry #105228-100G) (also known as HFIP) at a rate of 150 μL HFIP per 0.5 mg peptide). Once the HFIP was added to the lyophilized pellet the vials were sonicated for exactly one minute, or until the solution was clear. Once the dissolved peptide had taken on a clear appearance, the HFIP was gently evaporated out of each vial by passing Argon gas directly into the vial with the rubber stopper open just enough to allow the gasses and fumes to escape. When the inside of the vials was free of any remaining liquid, the remaining peptide is dissolved with 1% Ammonium Hydroxide at a rate which yields a peptide concentration of 1 mg/mL. 10 μL of this solution was mixed with 90μL of Milli-Q water, and from that 100 μL mixture 20 μL was added to 50 μL XT Sample Buffer (Bio-Rad #161-0791) and 130μL Milli-Q water for a final sample volume of 200 μL. No 2-Mercaptoethanol was added, and the samples were not heated. […] Instead the mixture was gently mixed by using a pipette. […]

[3] = biological target: T4, Beta-Amyloid 1-40 monomer (human); assay: western blot, 7E7 as primary antibody (FIG. 20)
T4 construct: also called Beta-Amyloid Monomer; Aβ monomer (1-40)
Method: as §1

Aβ(1-40) [4] = biological target: T1, Aβ(1-40); assay: ELISA; reacts best with peptide that has not crossed through the isoelectric point

T1 sequence (peptide, as listed by the source): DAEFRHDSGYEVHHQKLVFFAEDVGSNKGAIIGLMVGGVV
T2 sequence (peptide, as listed by the source): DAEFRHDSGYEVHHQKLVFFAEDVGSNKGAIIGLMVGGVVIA

binding result (Aβ(1-40) [1]): binds
binding result (Aβ(1-42)): binds
binding result [2]: binds
binding result [3]: binds
B1: monoclonal antibody 7E7 (antibody, V domains shown)
VH: EVKLVESGGGLVQPGSSQRLSCATSGFTFTDYYMSWVRQPPGKALEWLGFIRNKTKRYTTEYSASVKGRFTISRDNSQSILYLQMNTLRAEDSATYYCARDDPYARFAYWGQGTLVTVSA
VL: DVVMTQTPLSLPVSLGDQASISCRSGQSLVHRNGNTYLHWYLQKPGQSPKLLIYKVSNRFSGVPDRFSGSGTGTDFTLKISRVEAEDLGVYFCSQSTHVPFTFGSGTKLEIK
notes: Hybridoma monoclonal antibody raised against 1-42 rubredoxin fusion, detected with goat anti-mouse IgG (H+L); also called mAb 7E7; Beta Amyloid 7E7

binding result (Aβ(1-40) [4]): binds
B2: monoclonal antibody 6C2 (antibody, V domains shown)
VH: EVQLQQSGPELVKPGASVKISCKASGYSFTGYFLSWVKQSHGRSLEWIGRINPYNGHTFYNQKFKDKATLTVDKSSTTAHMELLSLTSEDSAVYYCAGSDSWGQGTTLTVSS
VL: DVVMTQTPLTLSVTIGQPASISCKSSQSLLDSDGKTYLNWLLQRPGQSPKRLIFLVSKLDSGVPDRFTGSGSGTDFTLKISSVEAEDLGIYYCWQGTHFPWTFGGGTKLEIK
notes: Hybridoma monoclonal antibody; also called mAb 6C2; Beta Amyloid 6C2
